B1: OR4K15 (parent)
chain: GUUAACGGUCAUAGGCCAUGGAAACUAGGAGCACCAUUUCGCUGCCAGUGAAGAAAUGAACAAAGAAAAUCUGGGCCAGGCAGGCAUCAAAAGAAAUAGUCUUGCGCUCAACCAGAAAGUCUGUAAUCAUUUUAAGGGUA

Variants of: B1
Assay: self-cleavage, relative activity (ratio to wild type); higher = more cleavage; in vitro, sequencing; the parent is a self-cleaving ribozyme

Variant | self-cleavage
A52G U131C | 1.51
G53A A54U | 1.67
A54C U122C | 0.42
A54U U132C | 2.02
G53U | 1.7
G53C | 1.74
G53A | 1.21
A52G U133C | 1.33
A52U A96G | 1.91
A54G A110U | 1.71
A54G A82C | 0.13
A54U A91G | 0.86
A54U A116U | 0.42
A52U U102A | 0.36
A54U A117G | 1.63
A54U A89G | 1.42
A54U A89C | 1.5
A54U C109U | 0.39
A54U A67G | 0.82
A52U | 0.8
A52U A66G | 1.8
A52U A66U | 1.48
A52U U130C | 1.8
A54U A126G | 1.6

Variant | self-cleavage
A54G U103A | 0.48
A54G U103C | 0.91
A54U U100C | 1.43
G53U A82U | 0.27
G53A A86G | 1.83
A54G C88U | 1.51
A54G G115A | 0.25
A54G U70C | 0.61
A52U U127C | 0.98
A54U A59G | 1.75
G53U U127A | 1.92
A52U A59U | 1.99
A54C U120C | 0.93
A54G A98G | 0.33
A52G U127C | 0.95
A52U U57C | 1.45
A54U A94G | 1.64
G53U A60U | 1.71
A54G U127A | 2.16
A54G A64G | 1.77
A54G G123U | 1.75
A54G A96G | 1.5
A54G U100C | 2.16
A54G U133C | 1.88

Variant | self-cleavage
A54G A126G | 0.64
G53A G136U | 2.03
A54G A114U | 0.07
A54G A114G | 0.4
A54G A114C | 0.09
A54U A60G | 0.97
A54U A92G | 1.54
A54G U131C | 1.3
A54U A129G | 0.88
A52U A55G | 1.07
A52U A55U | 1.62
A54G U108A | 0.02
A52U U87A | 1.78
A54G G93A | 1.21
G53A A111G | 0.02
A54U U133A | 1.49
A54U U133C | 2.23
A52U A98U | 1.72
A54G C76G | 0.22
A54C A118G | 1.49
A54C U87C | 1.45
A54G A90U | 1.57
A54G G74U | 0.11
A52U A78G | 0.24

Variant | self-cleavage
A54G A117G | 1.68
A54U A82G | 0.64
A54U A82C | 0.13
A55C A82G | 0.53
A52U U100C | 2.57
A54U U124A | 0.86
G53U U87C | 0.98
A54G C105U | 0.36
G53U A59G | 1.26
A54G C85U | 1.39
A52U A89G | 1.56
A54U A95G | 2.47
A54G A140U | 1.25
A54G A66U | 1.14
A52U A117G | 1.11
A52U C113U | 0.06
G53U U72A | 0.19
A54G A59G | 0.84
A52U U131C | 0.4
A54G G84A | 2.33
A54G A78G | 0.3
A54G U122G | 2.7
A54U A86G | 0.36
A52U U122C | 0.74

Variant | self-cleavage
A54G U97C | 1.37
G53A A78U | 0.52
G53A A78G | 0.22
A54G U87A | 1.79
A54G U87C | 0.9
A52U A90U | 2.35
A52U A90G | 0.38
A52U U97C | 0.96
G53A U103C | 0.64
A54G U124A | 0.9
A54U A96G | 1.68
G53A A89U | 2.31
A54G U132C | 1.28
A54C A68G | 1.03
A54U U72C | 0.09
A54U U120C | 0.32
G53A U102A | 0.68
A54G A68G | 0.91
A54C A116G | 0.17
A52U U72G | 0.39
A52U U72C | 0.17
A52U G99A | 0.22
G53U A126G | 1.4
A54G A118G | 1.08

Variant | self-cleavage
A54G A118U | 0.84
G53A G119U | 2.11
A55C A59G | 0.36
G53C U57G | 0.65
A54G A60U | 1.59
A54G A60G | 1.02
A54G A134U | 1.32
A54G U57G | 0.2
A54G U57C | 0.65
G53A G75A | 0.09
A54U A56U | 1.8
A54G U102A | 0.17
A54G U102C | 1.41
A54G C71U | 0.58
A52U A94U | 1.94
A52U A69G | 2.44
A52U A69U | 1.98
A52U A54U | 1.62
A54U A90G | 0.85
A54C U57C | 1.29
A52U U124G | 0.84
A54G A86G | 1.28
A52U G137A | 1.58
G53U C112U | 0.01

Variant | self-cleavage
A54G U120G | 2.09
G53U U70C | 1.29
A54U U122A | 1.45
A54U U122C | 1.27
A54U A118G | 0.95
A52U U120C | 1.21
A54G C112U | 0.03
A54U U130C | 1.62
A54G A95U | 1.53
A54G G106A | 0.02
A54G C77U | 1.46
A54G A55U | 1.55
A54G G137U | 1.44
A52G U124C | 1.18
A52G U124A | 1.03
A54U A114G | 0.14
A52U A125G | 0.79
A52U U70C | 1.72
A54G A67G | 1.57
A54U A64U | 1.98
A54G G75A | 0.14
G53U A54U | 1.67
G53A U100C | 2.52

— the RNAGym collection of RNA variant scans (doi:10.7554/elife.90254)
